Experimental data from patent US8470556B2, “Nucleic acids that encode antigen binding proteins that bind PAR-2” (Amgen Inc., priority 2007, dated 2013).

T1: cell surface expressed human PAR-2 (Homo sapiens, UniProt P55085)
T1 construct: expressed in transfected cells; host or cells: CHO cells
T1 sequence (P55085 26-397): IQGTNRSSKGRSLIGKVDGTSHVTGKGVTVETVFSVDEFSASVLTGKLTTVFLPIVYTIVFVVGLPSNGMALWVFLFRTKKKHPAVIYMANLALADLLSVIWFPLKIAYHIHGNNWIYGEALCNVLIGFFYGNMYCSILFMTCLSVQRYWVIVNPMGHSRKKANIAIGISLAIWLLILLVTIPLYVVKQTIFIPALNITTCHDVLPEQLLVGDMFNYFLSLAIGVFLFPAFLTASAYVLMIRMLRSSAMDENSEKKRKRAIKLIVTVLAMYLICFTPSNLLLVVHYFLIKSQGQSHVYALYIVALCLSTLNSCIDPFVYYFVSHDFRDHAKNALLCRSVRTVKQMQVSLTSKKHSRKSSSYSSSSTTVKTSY

B1: 1A1: anti-PAR-2 monoclonal antibody, blocking; heavy SEQ ID NO: 9, light SEQ ID NO: 11 (antibody, listed as Homo sapiens, V domains shown)
VH: EVQLVQSGAEVKKPGESLKISCKGSGYNFISHWIGWVRQMPGKGLEWMGMIYPGDSDTRYSPSFQGQVTISADKSINTAYLQWRSLKASDTAMYFCARHGGITGTTFYYDFGMDVWGQGTTVTVSS
VL: SYELTQPPSVSVSPGQTARITCSGDALPKQYASWYQQKPGQAPLLVIYRDSERPSGLPERFSGSSSGTTVTLTISGVQAEDEADYYCQSADSGGSYVFGTGTKVTVL
B2: 1B5: anti-PAR-2 monoclonal antibody; heavy SEQ ID NO: 13, light SEQ ID NO: 15 (antibody, listed as Homo sapiens)
heavy: EVQLVQSGAEVKKSGESLKISCKGSGYSFSNYWIGWVRQMPGKGLEWMGIIYPGDSDTRYSPSFQGQVTISADKSIRTAYLQWSSLKASDTAMYYCARHKGITGTTFYYDYGMDVWGQGTTVTVSS
light: SYELTQPPSVSVSPGQTARITCSGEALPKQYASWYQQKPGQAPVLVIYRDTERPSGIPERFSGSSSGTTVTLTISGVQAEDEADYYCQSADSNGAYVFGTGTRVTVL

What was measured:
[1] = biological target: T2, N-terminal PAR-2/Fc (full length and truncated) (Homo sapiens, UniProt P55085); assay: Western blot, binding to uncleaved versus clipped N-terminal PAR-2/Fc; conditions: upstream binder binds only full-length PAR-2/Fc
T2 construct: made in house; host or cells: CHO cells (10% FCS for uncleaved; serum-free for clipped)
T2 sequence (P55085 with tags, fused parts or gaps limits assumed): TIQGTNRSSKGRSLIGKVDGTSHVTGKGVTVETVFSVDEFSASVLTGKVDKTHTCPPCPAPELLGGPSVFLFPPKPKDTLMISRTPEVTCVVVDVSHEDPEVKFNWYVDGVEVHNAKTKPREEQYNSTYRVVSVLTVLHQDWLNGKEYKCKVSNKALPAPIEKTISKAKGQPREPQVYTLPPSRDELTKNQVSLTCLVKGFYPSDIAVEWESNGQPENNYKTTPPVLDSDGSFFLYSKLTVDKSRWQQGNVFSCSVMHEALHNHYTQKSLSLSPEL
Text: N-terminal PAR-2/Fc polypeptide (SEQ ID NO:6) is expressed in suitable mammalian cells such as CHO cells. Expression supernatant from CHO expression cells cultured in serum-free media contain a CHO cell trypsin-like serine protease that cleaves PAR-2/Fc at the activation Arg-Ser bond, generating the “clipped” version of the PAR-2/Fc polypeptide. CHO expression cells cultured in 10% fetal calf serum (which contains normal levels of plasma proteinase inhibitors at concentrations far in excess of the concentration of the CHO cell trypsin-like serine protease) express uncleaved N-terminal PAR-2/Fc in culture supernatants. Both clipped and uncleaved proteins are purified using methods that are suitable for isolation and purification of proteins comprising an Fc regions (for example, using a MabSelect™ resin systems, from GE Healthcare, Piscataway, N.J.)). The resultant purified Fc-constructs are analyzed by amino terminal sequence analysis (Edman degradation), size exclusion chromatrography, absorbance spectral scan, and mass spectroscopy, as needed.
To analyze binding to uncleaved versus cleaved PAR-2, various amounts of purified uncleaved and clipped N-terminal PAR2-Fc are subjected to SDS-PAGE using 8-16% polyacrylamide gradient gels (Novex gels, Invitrogen Life Technologies) in a Tris-Glycine buffer system. Gel lanes containing See Blue standards (Novex, Invitrogen Life Technologies) for molecular weight identification are also included. Following electrophoresis, proteins are transferred from gels onto nitrocellulose membranes using a Novex XCell II Blot Module (Invitrogen Life Technologies). Membranes are blocked with 1:1, Odyssey blocking buffer, OBB, (LI-COR Biosciences):TBS (Tris Buffer Saline) overnight at 4 C with shaking. Antibodies to be analyzed are diluted in 1:1 OBB:TBS at a desired final concentration for 1 hr at room temperature. Membranes are washed extensively with 0.1% Tween 20 in TBS (3-4 changes of 100 ml over ˜1 hr). Membranes are then exposed to the appropriate secondary antibody-Alexa680 (Molecular Probes, Invitrogen Life Technologies) conjugate (goat anti-rabbit IgG, or goat anti-mouse IgG) diluted 1:5000 in 1:1 (OBB:TBS) for 1 hr at room temperature. Membranes are washed as described above, and if desired, analyzed using a LI-COR Odyssey Infrared Imaging System (LI-COR Biosciences).
Several PAR-2 antibodies were tested in different assay formats; Table 2 summarizes the results. IC50 values were determined in a FLIPR assay for Ca2+ mobilization described previously; binding to the upstream region of the cleavage site versus the downstream region of the cleavage site was determined using the Western blot assay described previously.

[2] = system: Lewis rats; assay: Acute adjuvant-induced arthritis (C/K) model, knee joint thickness; type: in vivo; conditions: Lewis rat, group mean ± SEM
Method: This example describes acute and chronic models of arthritis. In both models, animals are anesthetized, for example by Ketamine/Xylazine mixture (mouse mix or rat mix, respectively) or isoflurane for all intraarticular (IA), periarticular (PA) injections or intradermal (ID) injections.
Joint injections, IA or PA, are targeted at either knees or hind limb paws. PA injections are equally divided across four sites surrounding the joint of interest. Paw injections are administered ID into the plantar area of the hind paw. To serve as an internal control, one knee or hind-limb paw is injected with vehicle alone or sterile PBS. Preparation of the injection area includes shaving the joint area after animals are anesthetized, and scrubbing with an iodine solution followed by an alcohol disinfectant. All articular injections are given with a 30-gauge needle or equivalent, and when needed by a gastight (i.e., Hamilton) syringe, for small injection volumes (i.e. 10 microL).
For induction of acute AIA (aAIA), animals are injected on day zero (D0) with 1-4% lambda-carrageenan and 1-4% kaolin (C/K) by IA injection in saline. Concentrations of both compounds are dependent on intended disease severity. Total injection volumes for the inducing agent are between 10-20 microL for mice and 60-80 microL for rat. Both concentration and injection volume are consistent with published methodologies (J Clin Invest. 2003; 111(1):35-41, and J Pharmacol Exp Ther. 2006; 316(3):1017-24). Alternatively, specific PAR-2 peptide agonists, or other activators of inflammation (such as trypsin, or human beta-tryptase [J Clin Invest. 2003; 111(1):35-41, J Pharmacol Exp Ther. 2006; 316(3):1017-24, J Pharmacol Sci. 2005 97(1):38-42, and Br J Pharmacol. 1999 127(5):1083-90]) or the equivalent, may be used. Concentrations used are selected for intended disease severity, and total injection volumes are appropriate to the animal being injected.
For both acute and chronic AIA studies, caliper measurements of joint diameter are taken of all joints of interest prior to any injection. Tracking of disease may include caliper measurements of joint diameter as well as flexible tape measurements of joint circumference, and visual scoring. Alternative methods (i.e., use of a plethysmometer) may also be used. Severity of cAIA is scored by one or both of the criteria shown below:
In this manner, 6-8 week old Lewis rats were injected with C/K plus treatment (or control) in the left knee, and negative control in each right knee, as for the acute model. Joint thickness was measured at set time points after treatment, using an average of three caliper readings. The change in thickness of the left knee as compared to the right knee was expressed as percent change, and is shown in Table 3 below.

[3] = system: Lewis rats; assay: Carrageenan paw edema in Lewis rat (plethysmography); type: in vivo; conditions: IP 18 h prior to carrageenan, 1.5 mg/rat
Method: (§1) This example describes the effects of PAR-2 antibodies on paw edema in an acute AIA model substantially as described previously. Briefly, 6-8 week old Sprague Dawley or Lewis rats (Charles River Laboratories, Wilmington, Mass.) were injected subcutaneously (SC) in the plantar region of the hind paw with 1% lambda carrageenan in one hind paw and control (saline) in the other. Blocking PAR-2 monoclonal antibody (1A1) or control (positive or negative control; see footnotes to Table 4) was administered intraperitoneally (IP) eighteen hours prior to adjuvant injection at 1.5 mg/rat (approximately 8-10 mg/kg), swelling was then measured by plethysomgraphy at selected time points. Data were expressed as volume of water in milliliters (mL) displaced per paw versus baseline measurements for that paw.

[4] = system: Sprague Dawley rats; assay: Carrageenan paw edema in Sprague Dawley rat (plethysmography); type: in vivo; conditions: 0 Hr, antibodies IP 1.5 mg/rat, indomethacin 5 mg/kg
Method: as §1

[5] = system: rats; assay: Paw edema study, further experiments (IP versus SC, dose dependence); type: in vivo, rat
[6] = Pharmacokinetic analysis in the paw edema study; type: in vivo, rat; conditions: SC administered
[7] = biological target: T1, cell surface expressed human PAR-2; assay: KinExA binding to cell surface expressed PAR-2; conditions: initial analysis, 95% confidence interval of 1.36 to 5.47 nM, N=2 experiments
Text: This example describes the analysis of the binding properties of PAR-2 antigen-binding proteins to cell surface expressed PAR-2 utilizing a Kinetic Exclusion Assay which measures binding events in solution phase and can be used to calculate KD, Kon and Koff (KinExA®; Sapidyne Instruments, Boise, Id.), substantially as described previously by Xie et. al. J. Imm, Methods 304:1 (2005) and Rathanaswami et. al. Anal. Biochem. 373:52 (2008). Briefly, serial dilutions of cells expressing human PAR-2 (for example, CHO transfectants expressing human PAR-2 at the cell surface, obtainable by transfecting CHO cells with human full length PAR-2 cDNA encoding a polypeptide of SEQ ID NO:2) and control cells (i.e., non-transfected CHO cells) in a modified DMEM medium (phenol red free containing 10% heat inactivated FBS, 0.1 mM MEM non-essential amino acids, 1 mM sodium pyruvate, penicillin-streptomycin-glutamine, and 0.025% (w/w) sodium azide) are incubated with set amounts of antibody for 24 to 36 hours at 4 C with rotation. […] The free mAb is measured by KinExA® using the appropriate capture beads and Cy5-conjugated anti-human secondary antibodies, as described by Rathanaswami et al. Biochem Biophys Research Commun: 1004 (2005). […]
The KD of certain PAR-2 antibodies was determined in this manner.

Molecule | Binding to Cleavage Site Up stream [1] | change in thickness of the left knee as compared to the right knee, percent change ([2]; 0 Hr) [%] | change in thickness of the left knee as compared to the right knee, percent change ([2]; 2 Hr) [%] | change in thickness of the left knee as compared to the right knee, percent change ([2]; 72 Hr) [%] | Paw Edema, volume of water displaced per paw versus baseline ([3]; 0 Hr) [mL] | Paw Edema, volume of water displaced per paw versus baseline ([3]; 2 Hr) [mL] | Paw Edema, volume of water displaced per paw versus baseline [4] [mL] | effect on paw swelling ([5]; administered IP) | inhibition of swelling, dose dependence ([5]; administered IP) | effect on paw swelling ([5]; administered SC) | bioavailability [6] | Kd [7] [nM]
B1 | xxx | 0.00 ± 0.00 | 1.10 ± 1.13 | 3.48 ± 0.66 | 0.00 ± 0.00 | 0.15 ± 0.06 | 0.00 ± 0.00 | significantly decreased paw swelling | dose-dependent manner | not when administered SC | suboptimal | 
B2 | xxx |  |  |  |  |  |  |  |  |  |  | 3.39
